Consider six molecules from publication PMC4414177 (2015).

To fix the notation:
B1: JNK1α2 (protein)
chain: MSRSKRDNNFYSVEIGDSTFTVLKRYQNLKPIGSGAQGIVCAAYDAILERNVAIKKLSRPFQNQTHAKRAYRELVLMKCVNHKNIIGLLNVFTPQKSLEEFQDVYIVMELMDANLCQVIQMELDHERMSYLLYQMLCGIKHLHSAGIIHRDLKPSNIVVKSDCTLKILDFGLARTAGTSFMMTPYVVTRYYRAPEVILGMGYKENVDLWSVGCIMGEMVCHKILFPGRDYIDQWNKVIEQLGTPCPEFMKKLQPTVRTYVENRPKYAGYSFEKLFPDVLFPADSEHNKLKASQARDLLSKMLVIDASKRISVDEALQHPYINVWYDPSEAEAPPPKIPDKQLDEREHTIEEWKELIYKEVMDLEERTKNGVIRGQPSPLGAAVINGSQHPSSSSSVNDVSSMSTDPTLASDTDSSLEAAAGPLGCCR
modifications: 1 mM GSH
B2: JNK1α2 (protein)
chain: B1 chain
modifications: 1 mM GSH+8 μM MC3181
B3: JNK1α2 (protein)
chain: B1 chain
B4: TRAF2 CTD (protein)
chain: DQDKIEALSSKVQQLERSIGLKDLAMADLEQKVLEMEASTYDGVFIWKISDFARKRQEAVAGRIPAIFSPAFYTSRYGYKMCLRIYLNGDGTGRGTHLSLFFVVMKGPNDALLRWPFNQKVTLMLLDQNNREHVIDAFRPDVTSSSFQRPVNDMNIASGCPLFCPVSKMEAKNSYVRDDAIFIKAIVDLTGL
modifications: 1 mM GSH+8 μM MC3181
B5: TRAF2 CTD (protein)
chain: B4 chain
modifications: 1 mM GSH
B6: TRAF2 CTD (protein)
chain: B4 chain

In the test the target is GSTP1-1 (Homo sapiens, UniProt P09211). The test is described as follows: ELISA.
In the case of B1, the Kd (in general, a measure of binding affinity in units of concentration) is 2200 nM.
Regarding B2, the Kd is more than 5000 nM.
Take B3: the Kd stood at 420 nM.
For B4 the value was more than 10000 nM; for B5, 3000 nM.
For B6 the value was 280 nM.
